The results in this text go back to patent publication US20210371530A1 (Merck Sharp & Dohme, published 2021).

B1: Anti-PD-1/LAG3 bispecific antibody 90ASU (bispecific antibody, human IgG1, kappa, L234A L235A)
heavy 1: not shown
light 1: DIVMTQTPLSLSVTPGQPASISCRASKSVSTSGFSYLHWYLQKPGQPPQLLIFLASNLESGVPDRFSGSGSGTDFTLKISRVEAEDVGVYYCQHSWELPLTFGQGTKLEIKRTVAAPSVFIFPPSDERLKSGTASVVCLLNNFYPREAKVQWKVDNALQSGNSQESVTEQDSKDSTYSLSSRLTLSKADYEKHKVYACEVTHQGLSSPVTKSFNRGEC
heavy 2: QMQLVQSGPEVKKPGTSVKVSCKASGYTFTDYNVDWVRQARGQRLEWIGDINPNDGGTIYAQKFQERVTITVDKSTSTAYMELSSLRSEDTAVYYCARNYRWFGAMDHWGQGTTVTVSSASTKGPSVFPLAPSSKSTSGGTAALGCLVKDYFPEPVTVSWNSGALTSGVHTFPAVLQSSGLYKLSSVVTVPSSSLGTQTYICNVNHKPSNTKVDKKVEPKSCDKTHTCPPCPAPEAAGGPSVFLFPPKPKDTLMISRTPEVTCVVVSVSHEDPEVKFNWYVDGVEVHNAKTKPREEQYNSTYRVVSVLTVLHQDWLNGKEYKCKVSNKALPAPIEKTISKAKGQPREPQVYVLPPSRDELTKNQVSLLCLVKGFYPSDIAVEWESNGQPENNYLTWPPVLDSDGSFFLYSKLTVDKSRWQQGNVFSCSVMHEALHNHYTQKSLSLSPG
light 2: DIVMTQTPLSLSVTPGQPASISCKASQSLDYEGDSDMNWYLQKPGQPPQLLIYGASNLESGVPDRFSGSGSGTDFTLKISRVEAEDVGVYYCQQSTEDPRTFGGGTKVEIKRTVAAPSVFIFPPSDEELKSGTATVVCLLNNFYPREAKVQWKVDNALQSGNSQESVTEQDSKDSTYSLSSYLELSKADYEKHKVYACEVTHQGLSSPVTKSFNRGEC
B2: Anti-PD-1/LAG-3 bispecific antibody 18ASS (bispecific antibody, human IgG1, kappa, L234A L235A)
heavy 1: not shown
light 1: B1 light 1 with A55S, S56K, N57Y, L58R, E59S, Q93S, H94Q, S95A, W96Y, E97H
heavy 2: B1 heavy 2
light 2: B1 light 2
B3: Fab 00APE (humanized 08A Fab with S61N correction) (Fab, V domains shown)
VH: EVQLVQSGAEVKKPGASVKVSCKASGYTFTSYYLYWVRQAPGQGLEWIGGVNPSNGGTNFNEKFKSRVTLTVDTSISTAYMELSRLRSDDTAVYYCTRRDSNYDGGFDYWGQGTTVTVSS
VL: DIVMTQTPLSLSVTPGQPASISCRASKSVSTSGFSYLHWYLQKPGQPPQLLIFLASNLESGVPDRFSGSGSGTDFTLKISRVEAEDVGVYYCQHSWELPLTFGQGTKLEIKR
B4: Humanized 08A IgG4 S61N (lot 98AIO) (antibody)
heavy: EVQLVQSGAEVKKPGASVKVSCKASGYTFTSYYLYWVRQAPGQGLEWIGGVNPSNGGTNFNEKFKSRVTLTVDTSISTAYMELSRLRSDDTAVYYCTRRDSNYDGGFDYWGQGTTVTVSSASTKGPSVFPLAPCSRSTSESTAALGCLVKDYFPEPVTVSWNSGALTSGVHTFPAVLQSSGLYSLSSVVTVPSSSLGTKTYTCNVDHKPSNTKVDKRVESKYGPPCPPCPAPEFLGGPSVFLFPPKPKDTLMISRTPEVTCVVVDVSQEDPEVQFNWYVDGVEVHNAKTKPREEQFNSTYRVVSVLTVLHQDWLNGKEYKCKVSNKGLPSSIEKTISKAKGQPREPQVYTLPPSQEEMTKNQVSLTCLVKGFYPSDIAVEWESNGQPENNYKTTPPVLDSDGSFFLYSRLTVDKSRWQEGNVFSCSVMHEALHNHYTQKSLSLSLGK
light: B1 light 1 with R128Q, R182T
notes: IgG4 S228P / kappa; also called 08A/HuPD1A-11 S61N S228P corrected IgG4 / Kappa
B5: Humanized 08A IgG4 G56A (antibody, V domains shown)
VH: B3 VH with G56A, N61S
VL: B3 VL
notes: IgG4 S228P / kappa; also called 89AVZ; 08A/HuPD1A-11 G56A IgG4 S228P / Kappa
B6: Humanized 08A IgG4 S61N N55E (antibody, V domains shown)
VH: B3 VH with N55E
VL: B3 VL
notes: IgG4 S228P / kappa; also called 50AQK; 08A/HuPD1A-11 N55E S228P IgG4 / Kappa
B7: Humanized 08A IgG4 S61N (lot 67AGG) (antibody)
heavy: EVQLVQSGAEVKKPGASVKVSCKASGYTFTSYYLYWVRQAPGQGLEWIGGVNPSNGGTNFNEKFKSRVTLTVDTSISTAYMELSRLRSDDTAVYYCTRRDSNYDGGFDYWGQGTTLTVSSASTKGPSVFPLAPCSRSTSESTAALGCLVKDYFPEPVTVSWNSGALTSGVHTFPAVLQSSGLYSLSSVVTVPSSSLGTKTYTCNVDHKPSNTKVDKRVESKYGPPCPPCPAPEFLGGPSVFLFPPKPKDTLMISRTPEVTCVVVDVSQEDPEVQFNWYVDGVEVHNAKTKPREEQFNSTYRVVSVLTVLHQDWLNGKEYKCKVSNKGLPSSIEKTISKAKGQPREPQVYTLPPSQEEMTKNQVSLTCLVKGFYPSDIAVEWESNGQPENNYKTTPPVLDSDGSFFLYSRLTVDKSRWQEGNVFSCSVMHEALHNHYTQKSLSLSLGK
light: B1 light 1 with R128Q, R182T
notes: IgG4 S228P / kappa; differs from 98AIO by an HFR4 mutation; also called 08A/HuPD1A-11 S61N WT S228P IgG4 / Kappa, with HFR4 mutation
B8: Humanized 08A IgG4 S61N G56A (antibody, V domains shown)
VH: B3 VH with G56A
VL: B3 VL
notes: IgG4 S228P / kappa; also called 51AQK; 08A/HuPD1A-11 S61N VH G56A IgG4 S228P / Kappa
B9: Humanized 08A IgG4 (antibody, V domains shown)
VH: B3 VH with N61S
VL: B3 VL
notes: IgG4 S228P / kappa, no CDRH2 corrections; also called 73AGG; 08A/HuPD1A-11 S228P IgG4 / Kappa
B10: Humanized 08A IgG4 Fab 098 G56A (antibody, V domains shown)
VH: B3 VH with G56A, N61S, D100L, N102H
VL: B3 VL
notes: IgG4 S228P / kappa; also called 90AVZ
B11: Mouse 09A (antibody, mouse IgG1, kappa, V domains shown)
VH: QVQLQQPGAELVKPGTSVKLSCKASGYTFTNYYMYWVKQRPGQGLEWIGGINPSNGGTNFNEKFKNKATLTVDSSSSTTYMQLSSLTSEDSAVYYCTRRDYRFDMGFDYWGQGTTLTVSS
VL: DIVLTQSPASLAVSLGQRAAISCRASKGVSTSGYSYLHWYQQKPGQSPKLLIYLASYLESGVPARFSGSGSGTDFTLNIHPVEEEDAATYYCQHSRDLPLTFGTGTKLELKR
notes: Mouse IgG1/kappa; also called 03AFN; Mouse x [PD-1_H] mAb (clone 09A) IgG1 / Kappa
B12: Mouse 08A (antibody, mouse IgG1, kappa, V domains shown)
VH: QVQLQQPGAELVKPGASVKLSCKASGYTFTSYYLYWMKQRPGQGLEWIGGVNPSNGGTNFSEKFKSKATLTVDKSSSTAYMQLSSLTSEDSAVYYCTRRDSNYDGGFDYWGQGTTLTVSS
VL: B11 VL with A9T, A20T, G28S, Y34F, S47P, Y53F, Y57N, R96W, D97E, T104A
notes: Mouse IgG1/kappa; also called 09AFF; parental mouse 08A antibody
B13: Mouse 08A N59Q (antibody, mouse IgG1, kappa, V domains shown)
VH: B12 VH with N59Q
VL: B11 VL with A9T, A20T, G28S, Y34F, S47P, Y53F, Y57N, R96W, D97E, T104A
notes: also called 38AFL; Clone 1.08 N59Q
B14: Mouse 08A N59A (antibody, mouse IgG1, kappa, V domains shown)
VH: B12 VH with N59A
VL: B11 VL with A9T, A20T, G28S, Y34F, S47P, Y53F, Y57N, R96W, D97E, T104A
notes: also called 80AFH; Clone 1.08 N59A
B15: Mouse 08A N59E (antibody, mouse IgG1, kappa, V domains shown)
VH: B12 VH with N59E
VL: B11 VL with A9T, A20T, G28S, Y34F, S47P, Y53F, Y57N, R96W, D97E, T104A
notes: also called 39AFL; Clone 1.08 N59E
B16: Humanized 08A IgG4 Fab 100 S61N G56A (antibody, V domains shown)
VH: B3 VH with G56A, D100L, N102H
VL: B3 VL with A55S, S56K, N57Y, L58R, E59S, Q93S, H94Q, S95A, W96Y, E97H
notes: also called 25AVE

Residue numbers refer to the chain shown, from its start. Names may count otherwise.

human PD-1 on cells, sequence (Q15116 25-288): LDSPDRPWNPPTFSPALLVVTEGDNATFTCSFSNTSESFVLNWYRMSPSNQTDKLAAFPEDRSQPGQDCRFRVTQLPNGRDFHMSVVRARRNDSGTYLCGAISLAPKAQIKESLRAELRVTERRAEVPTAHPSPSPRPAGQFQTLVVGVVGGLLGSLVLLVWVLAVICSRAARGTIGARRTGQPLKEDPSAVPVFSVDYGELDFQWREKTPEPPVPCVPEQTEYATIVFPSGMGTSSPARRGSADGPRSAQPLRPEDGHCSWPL

The first experiment addresses human PD-1 on cells (human, UniProt Q15116 25-288). The experiment is described as follows: cell-based or functional assay.
B1: the “AVG EC50 (nM), IL-2 luciferase reporter, Jurkat.hPD-1.IL2luc + THP-1.PD-L1 assay” value was 2.54 nM.
On the same count and under the same terms, the result for B2 reads 0.55 nM.
On the same count and under the same terms, next, B3: 3.32 nM.

For the next experiment, the target named is T1, polyhistidine-tagged human PD-1 (hPD1-His, 98AFK) (human, UniProt Q15116 25-167, limits assumed).
T1 construct: Lot 98AFK; also called human PD1-His; Human PD-1-His; not shown: polyhistidine tag
T1 sequence (Q15116 25-167 limits assumed): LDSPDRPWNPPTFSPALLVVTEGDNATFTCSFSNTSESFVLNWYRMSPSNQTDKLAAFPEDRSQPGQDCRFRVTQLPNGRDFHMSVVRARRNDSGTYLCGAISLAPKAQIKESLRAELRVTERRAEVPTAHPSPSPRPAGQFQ
Briefly: SPR capture format; reference Mouse 08A. The method, then:
A surface plasmon resonance (SPR)-based assay utilizing capture mode was used to determine the binding kinetics and affinities of anti-PD-1 antibodies against polyhistidine-tagged human PD-1 (hPD1-His, 98AFK). Following manufacture instructions, a series S sensor chip CM5 (GE Healthcare, BR100530) was activated using an amine-coupling kit (GE Healthcare, BR100050). Either human capture kit (anti-human Fc, 25 μg/mL, GE Healthcare, BR100839) or mouse capture kit (anti-mouse Fc, 30 μg/mL, GE Healthcare, BR100838) antibody diluted in the supplied pH 5.0, 10 mM sodium acetate buffer was immobilized onto the activated surface for 7 minutes. After immobilization, surfaces were deactivated with 1M ethanolamine/HCl (pH 8.5) for 7 minutes. The final immoblization levels reached ˜8,000 resonance units (RU) for mouse capture or 12,000 RU for human capture in each of the four flow cells.
Binding kinetics were measured on a biacore T200 in HBS-EP+(0.01 M HEPES pH 7.4, 0.15 M NaCl, 3 mM EDTA, 0.05% v/v Surfactant P20) running buffer at 25° C. Antibodies were captured either on mouse or human Fc capture surfaces at 10 μL/min flow rate. Antibodies were captured on flow cells 2, 3 and 4. Flow cell 1 was used as a reference with no antibody captured. A 6-point, 2-fold serial dilutions of the analyte 98AFK (hPD1-His), starting at 20 nM, were prepared in the running buffer (HBS-EP+). Two buffer blanks were included for double referencing. Titration series were injected for 3 minutes at 50 μl/min followed by 600 seconds of dissociation. After each cycle, surfaces were regenerated with a 30 second injection of 3M MgCl2 at […] on the anti-human Fc chip or 180 seconds of 10 mM Glycine pH 1.7 at 10 μl/min on the anti-mouse Fc chip.
Sensorgram processing and data analysis were performed with Biacore T200 Evaluation Software Version 2.0.4 (GE Healthcare). […] Processed curves were globally fitted to a 1:1 binding model to determine the association rate constant, kₒₙ (M⁻¹s⁻¹, where “M” equals molar and “s” equals seconds) and the dissociation rate constant, koff (s⁻¹). These rate constants were used to calculate the equilibrium dissociation constant, KD (M)=koff/kₒₙ.
Turning to B4, the “KD (REF) / KD” value was 4.4 ratio.
Still for that read-out and setting: next, B5: 2.4 ratio; B6: 0.8 ratio.
The same measure, in the same setting: next, B7: 5.2 ratio.
Same read-out and setting: next, B8: 4.2 ratio; B9: 1.7 ratio; B10: 3 ratio.
With B11, the “KD (REF) / KD” value is 0.5 ratio.
Same read-out and setting: next, B12: 1 ratio; B13: 0.04 ratio.
The same measure, in the same setting: the result for B14 reads 0.4 ratio.
For B15, the “KD (REF) / KD” value was found to be 0.03 ratio.
Still for that read-out and setting: the result for B16 reads 5.7 ratio.

A further experiment concerns the target T1, polyhistidine-tagged human PD-1 …. The experiment is described as follows: SPR solution affinity; reference Humanized 08A IgG4 S61N (98AIO). The method, then:
The titration series were incubated for 16-24 hours to reach equilibrium at room temperature. The unbound sites were measured using a BIAcore chip immobilized with antigen in a competition mode where SPR signal detected corresponded to unbound antibody.
The titration series following >16 hr. incubation were injected over the sensor chip immobilized with hPD1-His (above). Free, unbound antibodies concentrations were measured as proportional to RU after 120 seconds (for 500 pM mAb series) or 400 seconds (for 100 pM mAb series) of injection at 10 μL/min. After each cycle, surfaces were regenerated with a 30 second injection of 1:1 mixture of 3M MgCl2 and pH 2.0 10 mM glycine at 30 μL/min
Data analyses were performed using KINEXA Pro Version 1.02 (Sapydyne) where RUs were normalized and plotted against concentrations.
With B4, the “KD (REF) / KD” value was determined as 1 ratio.
Same read-out and setting: next, B5: 0.6 ratio; B8: 1 ratio.
Regarding B10, the “KD (REF) / KD” value was 1.7 ratio.
B16: the “KD (REF) / KD” value was more than 13 ratio.
